The values below come from patent US20260184780A1 (MONASH UNIVERSITY, published 2026).

The target in experiment [1] is T1, human PAR4 on isolated human platelets (human, UniProt Q96RI0 18-385).
T1 construct: Endogenous receptor of donor platelets; donors carry Ala120 and/or Thr120; also called PAR4 on human platelets
T1 sequence: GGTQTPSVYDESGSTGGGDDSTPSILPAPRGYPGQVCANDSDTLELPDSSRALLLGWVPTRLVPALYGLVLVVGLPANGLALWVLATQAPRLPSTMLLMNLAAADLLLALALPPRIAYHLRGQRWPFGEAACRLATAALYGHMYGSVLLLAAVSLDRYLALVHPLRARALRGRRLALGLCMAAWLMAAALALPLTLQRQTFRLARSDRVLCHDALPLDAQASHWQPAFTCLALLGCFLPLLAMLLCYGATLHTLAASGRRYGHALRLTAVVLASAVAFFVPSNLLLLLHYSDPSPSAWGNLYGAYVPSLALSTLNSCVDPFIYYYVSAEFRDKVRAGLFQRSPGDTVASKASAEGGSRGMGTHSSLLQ
In words: flow cytometry on isolated human platelets. (Flow cytometry measures light scatter and fluorescence of single cells or particles in a stream.)

Experiment [2] has as its target T1, human PAR4 on isolated human platelets. Kind of experiment: cell-based or functional assay.
The target of experiment [3] is T2, hPAR3 (Biotin) peptide (human, biotin on the C-terminal lysine (SKB)).
T2 construct: also called PAR3 peptide; PAR3 screening peptide
T2 peptide: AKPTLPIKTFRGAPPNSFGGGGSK
Kind of experiment: ELISA, biotinylated peptide on streptavidin plate, absorbance 405 nm. The procedure:
(§1) Biotinylated peptides (hPAR1-4) were diluted in Wash buffer and allowed to bind to the blocked Streptavidin coated wells at 10 ug/ml (100 ul per well) for 1 hour at room temperature with gentle mixing. Wells were washed 3 times as above and purified anti-hPAR4 mAbs prepared at 10 ug/ml in Wash buffer were allowed to bind (100 ul/well) for 1 hour at room temperature with gentle mixing. The plate was washed 3 times as above and anti-mouse Fc conjugated to Alkaline phosphatase (AP) at 0.3 ug/ml (100 ul) was added to the wells for 1 hour as above. Wells were washed 3 times as above and developed with Alkaline Phosphatase substrate as described for the screening supernatant ELISA.
(§2) To further characterise the purified anti-hPAR4 mAb's the specificity of the mAbs to hPAR1, hPAR2, hPAR3 and hPAR4 biotinylated peptides was performed.
A general note: In an ELISA, binding on a coated surface is turned into a signal by an enzyme label.

The target of experiment [4] is T3, hPAR1 (Biotin) peptide (human, not fully specified; biotin on the C-terminal lysine (SKB)).
T3 construct: also called PAR1 peptide; PAR1 screening peptide
T3 peptide: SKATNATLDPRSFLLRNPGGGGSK
The experiment is described as above. The procedure: as §1, §2

Experiment [5] has as its target T4, hPAR2 (Biotin) peptide (human, not fully specified; biotin on the C-terminal lysine (SKB)).
T4 construct: also called PAR2 peptide; PAR2 screening peptide
T4 peptide: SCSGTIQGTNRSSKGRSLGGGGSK
Described as above. The procedure: as §1, §2

Experiment [6] has as its target T5, hPAR4 (naked) peptide (human).
T5 construct: also called native PAR4 peptide; hPAR4 peptide
T5 peptide: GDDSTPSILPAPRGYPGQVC
Kind of experiment: ELISA, purified mAb on hPAR4 peptide coated wells, anti-mouse Fc-AP, absorbance 405 nm. As for the experimental part:
The experiment was completed with purified mAbs diluted in PBS instead of hybridoma supernatants.
The reactivity of seven purified anti-hPAR4 mAbs was analysed by ELISA (see Table 4).

The target in a further experiment is T6, hPAR4 1-9 peptide (human).
T6 construct: Range counted on the hPAR4 immunising peptide; also called peptide 1-9
T6 peptide: GDDSTPSIL
In words: ELISA, peptide coated on the plate, purified mAb, background subtracted. As for the experimental part:
(§3) Briefly the peptides were coated onto a Nunc maxisorp ELISA plate at 10 ug/ml overnight in coating buffer (0.1 M sodium carbonate pH8.0). Purified mAbs diluted in PBS were used in place of supernatant.

For experiment [7], the target named is T2, hPAR3 (Biotin) peptide. In words: ELISA, hybridoma supernatant.
For experiment [8], the target named is T5, hPAR4 (naked) peptide. Kind of experiment: ELISA, hybridoma supernatant.
For experiment [9], the target named is T3, hPAR1 (Biotin) peptide. Kind of experiment: ELISA, hybridoma supernatant.
For experiment [10], the target named is T5, hPAR4 (naked) peptide. In words: SPR Biacore T200, mAb captured by anti-mouse Fc, hPAR4 peptide as analyte. As for the experimental part: A series S CM5 sensor chip was activated with standard EDC/NHS amine coupling chemistry using the manufacturers recommended protocol with Goat anti-mouse IgG Fc. Anti-hPAR4 mAbs were captured at 1-2 ug/ml for 2 minutes at 10 ul/minute on flow cell 2 (FC2) and flow cell 1 (FC1) was used as a reference channel. […] Blank injections of buffer alone were also performed. All injections were performed in duplicate and in a random order.
(§4) The kinetics of the binding interaction between the mAbs and hPAR4 was measured using Surface Plasmon Resonance (SPR; Biacore) by two different methods: 1. Anti-mouse Fc mAb capture method and 2. Streptavidin (SA) chip to capture biotinylated peptide. The ka(on) rate and kd(off) rates and KD were measured and fitted to a Langmuir model using the Biacore evaluation software.
(In SPR one partner is held on a chip, and binding of the other changes the refractive index at the surface.)

Experiment [11] addresses T7, hPAR4 (Biotin) peptide (human, biotin on the C-terminal lysine (SKB)).
T7 construct: also called hPAR4-biotinylated peptide; biotin-coupled human PAR4 peptide
T7 peptide: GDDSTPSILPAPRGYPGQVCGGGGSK
Kind of experiment: SPR Bio-Rad ProteOn XPR36, biotin peptide captured, purified mAb as analyte.

Experiment [12] concerns the target T7, hPAR4 (Biotin) peptide. In words: SPR Biacore T200, biotin peptide on SA chip, whole mAb as analyte. The procedure: as §4
The target of experiment [13] is T2, hPAR3 (Biotin) peptide. In words: ELISA, hybridoma supernatant on immobilised peptide, binding as fold above control. As for the experimental part:
(§5) Wells were then washed with an automated plate washer (300 μl 1×PBS, 3 times). […] Wells were washed as above. A set of substrate tablets (1×silver, 1×gold) into 20 ml of ddH₂O by shaking vigorously on the thermomixer for 6 mins at room temperature. 50 μl of substrate ([…]™ […] Tablets (Sigma-Aldrich, N2770-50SET)) was added into each well and incubated for 20-25 mins at room temperature. 50 μl of STOP solution (2M Sodium Hydroxide, Solid (NaOH) (Merck, Cas #1310-73-2)) was added into each well to stop the reaction. Absorbance was read at 405 nm immediately after adding STOP solution with the ELISA reader, using the ‘RdrOle4’ software.
(§6) In order to determine the specificity of the anti-hPAR4 clones to PAR4, ELISA screening was performed as described above.

For experiment [14], the target named is T3, hPAR1 (Biotin) peptide. Described as above. The procedure:
as §5, §6

Experiment [15] concerns the target T4, hPAR2 (Biotin) peptide. The description is as above. As for the experimental part: as §5, §6
The target in experiment [16] is T1, human PAR4 on isolated human platelets. Kind of experiment: cell-based or functional assay. The source holds these as a separate data set.
The target in experiment [17] is T5, hPAR4 (naked) peptide. Kind of experiment: ELISA, purified mAb on hPAR4 peptide.
The next experiment concerns the target T8, hPAR4 8-15 peptide (human).
T8 construct: Range counted on the hPAR4 immunising peptide; also called peptide 8-15; core peptide
T8 peptide: ILPAPRGY
Kind of experiment: ELISA, peptide coated on the plate, purified mAb, background subtracted. As for the experimental part: as §3

Another experiment has as its target T9, hPAR4 11-20 peptide (human).
T9 construct: Range counted on the hPAR4 immunising peptide; the C-terminal cysteine was removed, so nine residues are given; also called peptide 11-20
T9 peptide: APRGYPGQV
Described as above. The procedure:
as §3

Another experiment has as its target T10, mPAR4 (naked) peptide (mouse).
T10 construct: T0021 says only 'mouse PAR4'; also called mouse PAR4
T10 peptide: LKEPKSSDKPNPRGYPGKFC
Kind of experiment: ELISA, hybridoma supernatant.

In experiment [18] the target is T2, hPAR3 (Biotin) peptide. In words: ELISA, hybridoma supernatant.
In experiment [19] the target is T5, hPAR4 (naked) peptide. In words: ELISA, hybridoma supernatant.
In experiment [20] the target is T3, hPAR1 (Biotin) peptide. In words: ELISA, hybridoma supernatant.

Read-outs that look alike come from different tables or passages of the source.

B1: 5F.RF3.A7b.C9 (antibody, IgG2b, V domains shown)
VH: QVQLVQSGAEVKKPGASVKVSCKTSAYTFTNYGISWVRQAPGQGLEWMGWISPYNGNTNYAQKLQGRVTMTTDTSTRTAYMELRSLRSDDTAVYYCAREYNRSSRGRYYYYGMDVWGQGTTVTVSS
VL: EIVLTQSPGTLSLSPGERATLSCRASQSVSSNYLAWYQKKPGQAPRLLISGASSRATGIPDRFSGSGSGTDFTLTISRLEPEDFAVYYCQQYGSSPWTFGQGTKVEIK
notes: also called MoB5F-RF3.A7b.C9; MoB5F F3
With B1, the “GMFI at 10 ug/ml over isotype control” value in experiment [1] was 53. Besides, in experiment [2], the “platelet aggregation, % of control” value is < 50 % of control. Besides, the binding result in the experiment with hPAR3 (Biotin) peptide [3] was “no binding (tested: 10 ug/ml)”; with hPAR1 (Biotin) peptide [4], “no binding (tested: 10 ug/ml)”; with hPAR2 (Biotin) peptide [5], “no binding (tested: 10 ug/ml)”; with hPAR4 1-9 peptide, “no binding”. The “EC50 (read off the curve)” value with hPAR4 (naked) peptide [6] is ~0.1 µg/mL.

B2: 5A.RC3.F10b.H4b (antibody, IgG2a, V domains shown)
VH: QVQLVESGGGVVQPGRSLRLSCAASGFTLSNYGMHWVRQAPGKGLEWVSVIWYDGSNKHYADSVKGRFTISRDNSKNTLYLQMNSLRAEDTAVYYCARESIVEVLPPFDYWGQGTLVTVSS
VL: KIVLTQSPGTLSLSPGERVTLSCRASQRVRNNYLAWFQQKPGQAPRLFIYGASSRATGIPDRFSGSGSGTDFIFTISRLEPEDFAVYYCQQYGNSYTFGQGTKLEIK
notes: also called MoB5ARC3; MoB5A-RC3.F10b.H4b
As to B2, the “binding to PAR3 ratio” value with hPAR3 (Biotin) peptide [7] stood at 1.1 ratio. Besides, the “binding to PAR4 ratio” value in the experiment with hPAR4 (naked) peptide [8] stood at 15.2 ratio. For the same molecule, the “binding to PAR1 ratio” value with hPAR1 (Biotin) peptide [9] worked out at 1 ratio. In addition, the “GMFI at 10 ug/ml over isotype control” value in [1] was determined as 39. For the same molecule, the Kd is 14.8 nM with hPAR4 (naked) peptide [10], ~0.4 nM in the experiment with hPAR4 (Biotin) peptide [11] and 0.32 nM in the experiment with hPAR4 (Biotin) peptide [12]. For the same molecule, the figures for the koff with hPAR4 (naked) peptide [10] and with hPAR4 (Biotin) peptide [12] were 0.00487 s⁻¹ and 0.000417 s⁻¹, respectively. Besides, the figures for the kon with hPAR4 (naked) peptide [10] and with hPAR4 (Biotin) peptide [12] were 330000 M⁻¹ s⁻¹ and 1.32e+06 M⁻¹ s⁻¹, respectively. In addition, the binding result was “no binding” with hPAR3 (Biotin) peptide [13]; “no binding” with hPAR1 (Biotin) peptide [14]; “no binding” with hPAR2 (Biotin) peptide [15]; “binds” in the experiment with hPAR4 8-15 peptide; “no binding” in the experiment with hPAR4 1-9 peptide; “no binding” with hPAR4 11-20 peptide. In experiment [16], the “IC50 (ug/ml) for inhibition of platelet aggregation, 0.1 U/ml thrombin” value came to 1.6 µg/mL. Also, the “ELISA Pos:Neg ratio” value in the experiment with hPAR4 (naked) peptide [17] worked out at 13.9 ratio.

B3: 5H.RF2.A5b.D3.C2 (antibody, IgG2a, V domains shown)
VH: QVQLQQWGAGLLKPSETLALTCAVYGGSLSDYYWSWIRQPPGKGLEWIGEINHSGTTNYNPSLKSRVTISVDTSKKQFSLKLSSVTAADTAVYYCAIEYSNSRGYYYGMDVWGQGTTVTVSS
VL: DIQMTQSPSSLSASAGDRITITCRASQTISNYLNWYQQKPGKAPKLLIYAASSLQSGVPSRFSGSGSGTDFTLTISSLQPEDFASYYCRQNYNTPLTFGGGTKVEIK
notes: also called MoB5H F2
On to B3, for which the Kd is 38 nM in the experiment with hPAR4 (naked) peptide [10] and 0.61 nM in the experiment with hPAR4 (Biotin) peptide [12]. For the same molecule, the koff with hPAR4 (naked) peptide [10] came to 0.00227 s⁻¹; with hPAR4 (Biotin) peptide [12], 0.00111 s⁻¹. Moreover, the kon with hPAR4 (naked) peptide [10] came out at 58400 M⁻¹ s⁻¹; in the experiment with hPAR4 (Biotin) peptide [12], 1.84e+06 M⁻¹ s⁻¹. Besides, in experiment [2], the “platelet aggregation, % of control” value was > 80 % of control. Besides, the “binding to mouse PAR4 ratio” value in the experiment with mPAR4 (naked) peptide was 10.4 ratio. The “binding to PAR3 ratio” value with hPAR3 (Biotin) peptide [18] came to 0.9 ratio. Besides, the “fold binding native vs KLH-linked PAR4 peptide” value with hPAR4 (naked) peptide [19] was determined as 11.9 fold. For the same molecule, the “binding to PAR1 ratio” value with hPAR1 (Biotin) peptide [20] was found to be 1 ratio. The binding result with hPAR3 (Biotin) peptide [3], with hPAR1 (Biotin) peptide [4] and in the experiment with hPAR2 (Biotin) peptide [5] was “no binding (tested: 10 ug/ml)” throughout. Further, in the experiment with hPAR4 (naked) peptide [17], the “ELISA Pos:Neg ratio” value is 8.5 ratio.

By EC50 (read off the curve) is commonly meant the concentration giving half of the maximal effect. The low end stands for a more potent agent, the high end for a less potent agent. The term Kd denotes the concentration at which binding is half-saturated. High values mean lower affinity, low ones higher affinity. One may read the koff as the rate constant with which the complex falls apart. One may read the kon as the rate constant with which the complex forms. The low end stands for slower complex formation, the high end for faster complex formation.
